Article PMC12881670, “Investigation into ligand selectivity and bias at the formyl peptide receptor family” (The Journal of Pharmacology and Experimental Therapeutics, 2025)
Where no end group is shown, it is not given here. The star is where a group is joined. Palmitoyl = CCCCCCCCCCCCCCCC(=O)*

What was measured:
[1] = target: T1, FLAG-Hs_FPR2 C-terminally fused to Renilla Luciferase 8 (human, UniProt P25090 1-351); assay: cell-based or functional assay
T1 sequence (looked up): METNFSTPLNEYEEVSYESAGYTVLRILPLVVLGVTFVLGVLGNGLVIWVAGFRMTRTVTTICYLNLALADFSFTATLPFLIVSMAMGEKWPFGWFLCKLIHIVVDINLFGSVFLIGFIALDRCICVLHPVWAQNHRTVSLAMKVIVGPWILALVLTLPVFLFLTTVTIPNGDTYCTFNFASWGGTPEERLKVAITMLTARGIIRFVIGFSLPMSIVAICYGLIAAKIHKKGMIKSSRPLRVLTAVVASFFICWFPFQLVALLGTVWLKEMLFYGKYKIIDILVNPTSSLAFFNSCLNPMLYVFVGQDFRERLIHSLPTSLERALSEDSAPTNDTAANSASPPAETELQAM

[2] = target: T2, FLAG-Mm_Fpr2 C-terminally fused to Renilla Luciferase 8 (mouse, UniProt O88536 1-351); assay: cell-based or functional assay
T2 sequence (looked up): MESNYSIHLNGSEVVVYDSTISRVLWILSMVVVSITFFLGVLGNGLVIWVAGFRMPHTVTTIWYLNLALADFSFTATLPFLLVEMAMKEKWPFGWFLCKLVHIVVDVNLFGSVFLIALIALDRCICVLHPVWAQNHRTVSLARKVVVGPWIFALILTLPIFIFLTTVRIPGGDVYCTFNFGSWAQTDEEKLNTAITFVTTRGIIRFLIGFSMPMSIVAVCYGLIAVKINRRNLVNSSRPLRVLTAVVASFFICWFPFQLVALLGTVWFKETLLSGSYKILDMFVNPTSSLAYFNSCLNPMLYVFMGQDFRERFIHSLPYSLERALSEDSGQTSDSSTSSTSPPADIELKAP

[3] = target: T3, FLAG-tagged mouse Fpr2 (Mm_Fpr2) (mouse, UniProt O88536 1-351); assay: flow cytometry on cells; competition binding: HEK293 cells stably expressing the receptor, lifted in PBS, on ice 90 min with 10 nM K(5/6-FAM)-WKYMVm and increasing unlabeled ligand; mean fluorescence of 5000 cells as % of that without competitor; One site-Fit logIC50
T3 construct: mouse formyl peptide receptor 2; cDNA purchased (ThermoFisher); source: HEK293, stably expressed, on cells; not shown: FLAG, N-terminal, kept
T3 sequence (looked up): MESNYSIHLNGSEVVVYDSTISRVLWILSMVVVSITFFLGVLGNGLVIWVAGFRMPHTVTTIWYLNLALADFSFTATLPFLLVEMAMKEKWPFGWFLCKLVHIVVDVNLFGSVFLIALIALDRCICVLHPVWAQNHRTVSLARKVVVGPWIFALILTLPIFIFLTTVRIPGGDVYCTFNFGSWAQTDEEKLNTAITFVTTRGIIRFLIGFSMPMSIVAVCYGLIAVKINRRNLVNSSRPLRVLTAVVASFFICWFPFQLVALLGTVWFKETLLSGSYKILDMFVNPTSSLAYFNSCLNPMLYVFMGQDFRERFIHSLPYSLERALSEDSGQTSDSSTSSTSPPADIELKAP

[4] = target: T4, FLAG-tagged human FPR2 (Hs_FPR2) (human, UniProt P25090 1-351); assay: as above
T4 construct: human formyl peptide receptor 2; also called hFPR2; source: HEK293, stably expressed, on cells; not shown: FLAG, N-terminal, kept
T4 sequence (looked up): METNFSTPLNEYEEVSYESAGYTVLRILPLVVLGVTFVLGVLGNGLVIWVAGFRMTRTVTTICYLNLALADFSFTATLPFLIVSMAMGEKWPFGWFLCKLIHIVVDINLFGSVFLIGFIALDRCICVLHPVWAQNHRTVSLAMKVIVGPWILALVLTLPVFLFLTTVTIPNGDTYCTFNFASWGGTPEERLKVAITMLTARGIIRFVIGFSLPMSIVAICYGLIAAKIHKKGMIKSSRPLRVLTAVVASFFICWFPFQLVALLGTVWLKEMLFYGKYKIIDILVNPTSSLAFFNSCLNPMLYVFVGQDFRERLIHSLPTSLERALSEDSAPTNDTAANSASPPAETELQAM

[5] = target: T4, FLAG-tagged human FPR2 (Hs_FPR2); assay: cell-based or functional assay
[6] = target: T3, FLAG-tagged mouse Fpr2 (Mm_Fpr2); assay: cell-based or functional assay
[7] = target: T3, FLAG-tagged mouse Fpr2 (Mm_Fpr2); assay: cell-based or functional assay; remark: listed apart in the source
[8] = target: T4, FLAG-tagged human FPR2 (Hs_FPR2); assay: cell-based or functional assay; remark: listed apart in the source
[9] = target: T1, FLAG-Hs_FPR2 C-terminally fused to …; assay: cell-based or functional assay; remark: listed apart in the source
[10] = target: T2, FLAG-Mm_Fpr2 C-terminally fused to …; assay: cell-based or functional assay; remark: listed apart in the source

- BRET of receptor-RLuc8 with Venus-mGsi: Emax (% of 1 μM WKYMVm) [1]: 19.4%
- BRET of receptor-RLuc8 with Venus-mGsi: Log EC50 (M) [1]: -6.78 log M
- BRET of receptor-RLuc8 with Venus-mGsi: Emax (% of 1 μM WKYMVm) [2]: 24.2%
- BRET of receptor-RLuc8 with Venus-mGsi: Log EC50 (M) [2]: -6.78 log M
- Log IC50 [3]: -5.38 log M
- Max Comp (%) [3]: 100%
- Log IC50 [4]: -5.27 log M
- Max Comp (%) [4]: 100%
- TruPath BRET: dissociation of Gαi2 from β3γ9, EC50 (receptor not given) [5]: 130 nM
- receptor internalization (flow cytometry): Emax (% of 1 μM WKYMVm) [6]: 12.3%
- receptor internalization (flow cytometry): Log EC50 (M) [6]: -10.5 log M
- ERK1/2 phosphorylation (Western blot): Emax (% of 1 μM WKYMVm) [7]: 141%
- ERK1/2 phosphorylation (Western blot): Log EC50 (M) [7]: -7.27 log M
- ERK1/2 phosphorylation (Western blot): Emax (% of 1 μM WKYMVm) [8]: 80.8%
- ERK1/2 phosphorylation (Western blot): Log EC50 (M) [8]: -7.47 log M
- BRET of receptor-RLuc8 with Arrestin 3-YFP: Emax (% of 1 μM WKYMVm) [9]: 25.5%
- BRET of receptor-RLuc8 with Arrestin 3-YFP: Log EC50 (M) [9]: -6.55 log M
- BRET of receptor-RLuc8 with Arrestin 3-YFP: Emax (% of 1 μM WKYMVm) [10]: 33.4%
- BRET of receptor-RLuc8 with Arrestin 3-YFP: Log EC50 (M) [10]: -6.58 log M
B1: F2Pal10 (Pal-Pal-KIHKKGMIKS) (peptide)
peptide: {Palmitoyl-Palmitoyl}-KIHKKGMIKS
notes: Pal is printed twice; the text speaks of N-terminal palmitoylation as the last step of the synthesis; also called pepducin; source: synthetic peptide (Fmoc solid phase, purified by preparative RP-HPLC)
